In this assay the target is T1, Drp1, recombinant, purified (Novus Biologicals # H00010059-P01) (UniProt O00429 1-736).
T1 construct: Drp1 (dynamin-related protein 1); The methods call Drp1 GST-tagged and immobilised; The results describe it as untagged analyte at 56, 167 and 500 nM; also called GST-tagged recombinant, purified Drp1; recombinant Drp1; source: bought: Novus Biologicals, # H00010059-P01
Description: BLI; Octet RED384 (ForteBio), anti-GST biosensor. Methods: GST-Drp1 immobilised, WT or L203X Zdhhc13 in solution. Results: GST-Zdhhc13 captured, Drp1 at 56, 167 and 500 nM. To be noted: both partners purified.

T1 sequence (O00429 whole entry): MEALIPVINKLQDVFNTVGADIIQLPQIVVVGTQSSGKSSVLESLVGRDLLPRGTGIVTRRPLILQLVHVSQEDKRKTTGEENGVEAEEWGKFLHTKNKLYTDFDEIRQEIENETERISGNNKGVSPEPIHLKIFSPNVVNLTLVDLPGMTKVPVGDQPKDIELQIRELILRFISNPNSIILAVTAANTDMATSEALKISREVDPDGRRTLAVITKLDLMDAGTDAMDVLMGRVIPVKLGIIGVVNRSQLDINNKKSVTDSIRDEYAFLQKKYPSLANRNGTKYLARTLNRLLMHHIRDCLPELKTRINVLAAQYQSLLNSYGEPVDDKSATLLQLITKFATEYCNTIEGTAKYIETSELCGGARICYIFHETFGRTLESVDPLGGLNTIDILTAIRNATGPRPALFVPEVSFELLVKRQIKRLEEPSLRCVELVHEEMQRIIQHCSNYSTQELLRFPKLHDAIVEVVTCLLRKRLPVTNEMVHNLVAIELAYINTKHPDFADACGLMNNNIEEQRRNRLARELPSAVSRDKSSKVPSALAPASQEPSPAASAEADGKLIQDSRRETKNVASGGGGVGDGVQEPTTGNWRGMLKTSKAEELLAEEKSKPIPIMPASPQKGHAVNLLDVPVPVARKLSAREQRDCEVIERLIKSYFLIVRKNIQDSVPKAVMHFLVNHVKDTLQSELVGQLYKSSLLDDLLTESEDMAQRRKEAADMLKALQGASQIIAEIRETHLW

B1: Zdhhc13, wild type, recombinant (mouse sequence) (enzyme, UniProt Q9CWU2 1-622, looked up)
chain: MEGPGLGSQCRNHSHGSHVPGFGRHGICVHENKELAKAKEILPLIEDSSNCDIVKATQYGIFERCKELVEAGYDVRQPDRENVSLLHWAAINNRLELVKFYISKGAVIDQLGGDLNSTPLHWAIRQGHLPMVILLLQHGADPTLIDGEGFSSIHLAVLFQHMPIIAYLISKGQSVNMTDVNGQTPLMLSAYKVIGPEPTGFLLKFNPSLSVVDKTHQNTPLHWAVAAGNVSAVDKLLEAGSSLDIRNAKGETPLDMALQSKNQLISHMLRTEAKMRANKQFRLWRWLHKCELFLLLILSMITLWAVGYILDFNSDSWLLKGCLLVALFFLTSLFPRFLVGYKNLVYLPTVFLLSSIFWIFMTWFILFFPDTAGSPLYFAFIFSIMAFLYFFYKTWATDPGFTKASEEERKVNIVTLAETGSLDFRTFCTSCLIRKPLRSLHCHVCNSCVARFDQHCFWTGRCIGFGNHHHYIFFLLSLSMVCDWIIYGSFVYWSNHCATTFKEDGLWTYLNQIVACSPWVLYIFMLAAFHFSWSTFLLINQLFQIAFLGLTSHERISLLKQSRHMKQTLSLRKTPYNLGFTQNLADFFQCGCFGLVKPCIIDWTSQYTMVFHPAKEKVLRSV
notes: Zdhhc13, mouse, UniProtKB Q9CWU2; also called WT Zdhhc13; full length GST-tagged Zdhhc13; source: purified recombinant (culture supernatant)
B1: the Kd was 560 nM, the koff came to 0.046 s⁻¹ and the kon came out at 82000 M⁻¹ s⁻¹.

B2: Zdhhc13 L203X, truncated form, recombinant (mouse sequence) (domain or fragment, UniProt Q9CWU2 1-202, looked up)
chain: MEGPGLGSQCRNHSHGSHVPGFGRHGICVHENKELAKAKEILPLIEDSSNCDIVKATQYGIFERCKELVEAGYDVRQPDRENVSLLHWAAINNRLELVKFYISKGAVIDQLGGDLNSTPLHWAIRQGHLPMVILLLQHGADPTLIDGEGFSSIHLAVLFQHMPIIAYLISKGQSVNMTDVNGQTPLMLSAYKVIGPEPTGFL
notes: Zdhhc13, mouse, UniProtKB Q9CWU2; naturally occurring nonsense mutation L203X (premature stop codon at codon 203), so the chain ends at residue 202; also called L203X Zdhhc13; truncated Zdhhc13; source: purified recombinant (culture eluate)
Turning to B2, the Kd was determined as 88 nM, the koff was 0.0018 s⁻¹ and the kon was found to be 21000 M⁻¹ s⁻¹.
